Reference: patent US9482663

Target: Anti-CRP antibodies (polyclonal)
Assay: SPR (Spreeta chip), anti-CRP antibodies injected over OM layer with Z-domain on gold

## Z-domain of protein A autodisplayed on the E. coli outer membrane as a fusion protein of AIDA-I (from UniProt P38507 212-269; Q03155 840-1286)
  SPR signal: 1.1 A.U
